Patent US20170305994A1 (Novo Nordisk, published 2017)
Substitutions are numbered along the chain they refer to. Names and notes keep the numbering of the source.

B1: 0130 (recombinant murine Fab of 45F36) (Fab, V domains shown)
VH: EVQLVESGGGLVKPGGSLKLSCAASGFTFSSYAMSWVRQSPDKRLEWVAEISSGDTYTYYPDTVTGRFTISRDNAKKTLYLEMSGLRSEDTAMYYCARDREAYYGQQYVMDYWGQGTSVTVSS
VL: DIVLTQSPASLAVSLGLSVTISCRASESIEYSGTSFLQWYQQKPGQPPRLLIYGSSTVESGVPARFSGSGSGTDFSLNIHPVEEDDSAMYFCQQSRRLPWTFGGGTKLEIKR
notes: murine Fab; also called 00130
B2: 0122 (chimeric Fab of 27F16, human IgG4 constant domain, hinge Cys->Ser) (Fab, V domains shown)
VH: EVQLVESGGDFVKPGGSLKLSCAASGFTFNNYGMSWVRQTPDKRLEWVAAISSGVTYTYYPDTVKGRFTISRDNAKNTLYLHMSSLKSEDTAMYYCGRHDDYGNHFDYWGQGTTLTVSS
VL: DIVMTQSPSSLAMSLGQRVTMNCKSSQSLLNSHNQKNYLAWYQQKPGQSPKLLVYFASSRESGVPDRFIGSGSGTDFTLTISSVQAEDLADYFCQQHYSTPFTFGSGTKLEIKR
notes: murine variable domains, human IgG4 constant domain (IgG4-Ser), human kappa
B3: 0118 (chimeric Fab of 27F16, human IgG1 constant domain) (Fab, V domains shown)
VH: B2 VH
VL: B2 VL
B4: 0169 (humanized IgG1 Fab of 0072; HC T28A S49A Y91; LC Q3A T5A S60A M4L) (Fab, V domains shown)
VH: EVQLVESGGGLVQPGGSLRLSCAASGFTFSNYDMSWVRQAAGKGLEWVSAFSSDGYTFYPGAVKGRFTISRENAKNSLYLQMNSLRAGDTAVYYCARHADYANYPVMDYWGQGTLVTVSS
VL: DIALAQSPSSLSASVGDRVTITCRASKSVSTSGYSYMHWYQQKPGKAPKLLIYLASNLEAGVPSRFSGSGSGTDFTLTISSLQPEDFATYYCQHSRELPLTFGGGTKVEIK
B5: 0219 (humanized Fab of 27F44, IgG1, S49A HC) (Fab, V domains shown)
VH: B4 VH with A41T, S49A, A62S
VL: B4 VL with A3Q, L4M, A5T, A60S
notes: Human IgG1 constant part

Legend:
[1] = biological target: T1, human DR3 (full length, on cells) (human, UniProt Q93038 25-417); assay: cell-based or functional assay
T1 sequence: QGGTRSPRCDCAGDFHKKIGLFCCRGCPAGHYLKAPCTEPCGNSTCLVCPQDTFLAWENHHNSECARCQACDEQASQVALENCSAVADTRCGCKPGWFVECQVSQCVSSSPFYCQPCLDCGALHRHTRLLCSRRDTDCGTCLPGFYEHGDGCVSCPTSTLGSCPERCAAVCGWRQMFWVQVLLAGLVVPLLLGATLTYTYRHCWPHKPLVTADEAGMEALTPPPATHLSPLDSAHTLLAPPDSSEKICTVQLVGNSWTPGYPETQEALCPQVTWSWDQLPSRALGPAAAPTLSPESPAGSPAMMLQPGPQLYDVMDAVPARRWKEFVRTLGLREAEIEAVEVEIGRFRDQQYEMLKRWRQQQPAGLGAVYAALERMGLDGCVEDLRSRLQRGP

[2] = biological target: T1, human DR3 (full length, on cells); assay: cell-based or functional assay; remark: listed apart in the source
[3] = biological target: T2, human DR3 with the death domain deleted (ΔM339-P417 of SEQ ID NO:1), expressed on CHOK1SV cells (human, UniProt Q93038 25-338); assay: flow cytometry competition: Fab vs TL1A on hDR3-expressing CHO cells
T2 construct: also called truncated DR3; hDR3 expressing CHO cells
T2 sequence: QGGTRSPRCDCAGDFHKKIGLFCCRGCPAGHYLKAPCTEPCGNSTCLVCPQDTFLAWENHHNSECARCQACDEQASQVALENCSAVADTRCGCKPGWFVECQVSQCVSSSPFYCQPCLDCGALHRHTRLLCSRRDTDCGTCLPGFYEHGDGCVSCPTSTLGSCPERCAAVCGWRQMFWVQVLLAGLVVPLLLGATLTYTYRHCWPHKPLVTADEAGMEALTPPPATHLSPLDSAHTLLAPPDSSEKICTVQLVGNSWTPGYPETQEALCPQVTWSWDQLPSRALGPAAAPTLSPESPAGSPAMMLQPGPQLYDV

DR3 (CRD1)-Fc = biological target: T3, DR3 (CRD1)-Fc (human); assay: SPR Biacore T200, DR3(CRD1)-Fc captured by anti-human IgG, Fab as analyte, 25 C, 1:1 model, mean of 3 surface densities
T3 construct: Amino acids 25-71 of DR3 fused to the Fc domain of human IgG4; purified to exclude oligomers (mainly dimeric)
Protocol: The experiments were performed on a Biacore T200 instrument (GE Healthcare) and analysed with the Biacore T200 Evaluation Software. Anti human IgG antibodies (human IgG capture kit from GE Healthcare) were immobilized on all flow cells of a CM5 sensor chip according to manufacturer's instructions. HBS-EP (GE Healthcare) with 0.1% human serum albumin was used as running buffer. DR3(CRD1)-Fc (SEQ ID NO:2) was captured on the chip at low surface densities between 14 and 45 RU. Fab fragments were diluted to concentrations between 90 and 0.037 nM and subsequently injected for 360 s. […] Binding curves were measured at 25° C. with a flow rate between 30 and 60 μL/min.
Regeneration was performed with 3 M […] for 2×20 s. The raw data were double referenced by subtraction of the signals from a reference flow cell without captured ligand and a buffer blank. Determination of the kinetic parameters was performed by fitting with a 1:1 binding model using the Biacore T200 Evaluation Software (GE Healthcare). Average values obtained from 3 different surface densities of DR3(CRD1)-Fc (SEQ ID NO:2) were calculated and are stated in table 14

[4] = biological target: T1, human DR3 (full length, on cells); assay: cell-based or functional assay; remark: listed apart in the source
[5] = biological target: T1, human DR3 (full length, on cells); assay: cell-based or functional assay; remark: listed apart in the source

T3 sequence (chain, as listed by the source limits assumed): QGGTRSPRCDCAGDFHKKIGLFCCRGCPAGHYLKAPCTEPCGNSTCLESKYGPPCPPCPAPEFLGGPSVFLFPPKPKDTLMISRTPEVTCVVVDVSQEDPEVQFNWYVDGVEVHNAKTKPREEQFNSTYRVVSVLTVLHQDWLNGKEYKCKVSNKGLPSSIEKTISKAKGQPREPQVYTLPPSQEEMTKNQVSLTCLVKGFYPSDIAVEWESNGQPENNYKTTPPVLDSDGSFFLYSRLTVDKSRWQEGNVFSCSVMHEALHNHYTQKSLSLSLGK

Binder	max % inhibition of TNFalpha, donor 1 [2]	max % inhibition of TNFalpha, donor 2 [2]	IC50 [3]	max percentage inhibition [3]	Kd (DR3 (CRD1)-Fc)	koff (DR3 (CRD1)-Fc)	kon (DR3 (CRD1)-Fc)	IFN-γ, TL1A-costimulated lymphocytes, Fab 0.003 µg/mL [4]	IFN-γ, TL1A-costimulated lymphocytes, Fab 0.01 µg/mL [4]	IFN-γ, TL1A-costimulated lymphocytes, Fab 0.03 µg/mL [4]	IFN-γ, TL1A-costimulated lymphocytes, Fab 0.1 µg/mL [4]	IFN-γ, TL1A-costimulated lymphocytes, Fab 0.3 µg/mL [4]	IFN-γ, TL1A-costimulated lymphocytes, Fab 1.0 µg/mL [4]	further results
B1	84.4%	78%	1.34 nM	73%	0.12 nM	0.000208 s⁻¹	1.74e+06 M⁻¹ s⁻¹							IC50 at 40 ng/ml TL1A, I5 reporter cells [1]: 1.4 nM; IC50, TNFalpha inhibition, TL1A-activated CD4+ T cells, donor 1 [2]: 0.539 nM; IC50, TNFalpha inhibition, TL1A-activated CD4+ T cells, donor 2 [2]: 1.77 nM; IC50, TNFalpha inhibition, average (n 5) [2]: 0.642 nM
B2	3.9%	10%	5.11 nM	33%										
B3								132 ng/mL	134 ng/mL	158 ng/mL	151 ng/mL	124 ng/mL	132 ng/mL	IFN-γ, TL1A-costimulated RA SF cells, Fab 0.003 µg/mL [5]: 2310 pg/mL; IFN-γ, TL1A-costimulated RA SF cells, Fab 0.01 µg/mL [5]: 2280 pg/mL; IFN-γ, TL1A-costimulated RA SF cells, Fab 0.03 µg/mL [5]: 2080 pg/mL; IFN-γ, TL1A-costimulated RA SF cells, Fab 0.1 µg/mL [5]: 2100 pg/mL; IFN-γ, TL1A-costimulated RA SF cells, Fab 0.3 µg/mL [5]: 2120 pg/mL; IFN-γ, TL1A-costimulated RA SF cells, Fab 1 µg/mL [5]: 2230 pg/mL
B4								121 ng/mL	138 ng/mL	81 ng/mL	58 ng/mL	31 ng/mL	55 ng/mL	
B5					0.00955 nM	3.06e-05 s⁻¹	3.2e+06 M⁻¹ s⁻¹							
